The text below walks through data of patent US20250051407A1, “De novo designed sequence-specific DNA binding proteins” (University of Washington, priority 2023, published 2025).

Data set [1] deals with DBP57-TetR (synthetic construct). As to the kind of experiment: cell_activity. As to conditions: E. coli YFP NOT gate, 1 mM IPTG.
Data set [2] has as its system DBP48-TetR (synthetic construct). As to the kind of experiment: cell_activity. The conditions noted are these: E. coli YFP NOT gate, 1 mM IPTG.
The subject of another data set is 13 unique dsDNA targets. As to the kind of experiment: All-by-all yeast surface display screen of DBP design hits. The format is binding. The procedure:
And an all-by-all screen of DBP design hits to 13 unique dsDNA targets was performed (FIG. 4, table 2). […] To try to understand these observed binding preferences, each tested DNA sequence was threaded onto each design complex model at all possible base pair alignments, the alternative complex models were relaxed with Rosetta™, and the model with the most favorable Rosetta™ ΔΔG was selected.
Saccharomyces cerevisiae EBY100 strain cultures were grown in C-Trp-Ura medium supplemented with 2% (w/v) glucose. For induction of expression, yeast cells were centrifuged at 6,000 g for 1 min and resuspended in SGCAA medium supplemented with 0.2% (w/v) glucose at the cell density of 1×10^7 cells per ml and induced at 30° C. for 16-24 h. Cells were washed with PBSF (PBS with 1% (w/v) BSA) and labeled with biotinylated targets using two labeling methods: with-avidity and without-avidity labeling. For the with-avidity method, the cells were incubated with biotinylated target, together with anti-c-Myc fluorescein isothiocyanate (FITC, Miltenyi Biotech) and streptavidin-phycoerythrin (SAPE, ThermoFisher). The concentration of SAPE in the with-avidity method was used at one-quarter of the concentration of the biotinylated targets. For the without-avidity method, the cells were first incubated with biotinylated targets, washed and secondarily labeled with SAPE and FITC.
(§1) For yeast display characterization of individual designs, including competition assays, DNA sequences encoding the proteins of interest were purchased as Integrated DNA Technologies (IDT) E-Blocks™, transformed into yeast cells, and incubated in 96 well culture plates. Labeling with biotinylated dsDNA targets and SAPE/FITC was performed in a 96 well plate format. For yeast display competition assays, labeling was performed without avidity using 1 μM biotinylated dsDNA duplex oligos and an excess of 8 μM non-biotinylated competitor dsDNA duplex oligos. […] Flow cytometry analysis was performed with an Attune NxT™ flow cytometer with autosampler. Flow cytometry data analysis was performed using custom python code and the CytoFlow™ python package. For each individual sample, gating of the expression population was performed using the CytoFlow™ Gaussian Mixture Model and the ratio of SAPE channel intensity to FITC channel intensity (binding signal/expression signal) was calculated for all gated expression events of the sample.

Data set [3] deals with synthetic promoter containing the designed DBP binding sites controlling YFP. As to the kind of experiment: Transcriptional repression assay (NOT gate, YFP) in E. coli. In kind it is cell-based, Escherichia coli. As to conditions: IPTG induction (1 mM), flow cytometry. From the text: We next tested the ability of the designed DBPs to function in cells to regulate transcription. We constructed candidate NOT gates (38) to assay transcriptional repression in Escherichia coli, where the input is a designed DBP under control of the IPTG-inducible PTac promoter and the output is yellow fluorescent protein (YFP) expression driven by a promoter incorporating each DBP's DNA binding site. […] To increase avidity and bulk, we fused the DBPs to the homodimerization domain of the TetR protein (39), using RFdiffusion (40) and ProteinMPNN sequence design to generate rigid linkers that orient the DBP domain of each dimer unit on a DNA target containing two palindromic binding sites. For DBPs 48, 69, and 57, we selected 96 TetR fusions for experimental characterization in the NOT gate circuit. Upon initial screening, we observed modest repression for several designs and selected two for further validation (one incorporating DBP48, the other DBP57) (FIG. 8). […]

Data set [4] relates to synTF-specific cis-regulatory elements (CRE) in HEK293T cells. As to the kind of experiment: Transcriptional activation by synTFs in HEK293T cells (ENGRAM). The conditions noted are these: DBP fused to GCN4 dimerization domain and VP64; HEK293T cells expressing PEmax; dependent on spacing between motifs. In kind it is cell-based. The source says: Next, we investigated whether the DBPs can be used as activators in mammalian cells. A set of synthetic transcription factors (synTFs) were created by fusing the GCN4 dimerization domain and the VP64 activation domain to the C-termini of DBPs 9, 35opt, 48, 57, and 60 which recognize 3 unique motifs. The dimerization domain allows the DBPs to recognize a palindromic target sequence consisting of two binding motifs, improving the binding affinity to the DNA sequence (FIG. 2C). We created synTF specific cis-regulatory elements (CRE) with 4 repeats spaced by 6 bp to drive the expression of downstream genes, and used the ENGRAM (43) recording technology to measure the activity of the synTFs in HEK293 cells. In ENGRAM, each CRE drives the expression of a uniquely barcoded pegRNA, which upon expression is recorded into the DNA TAPE at the HEK3 locus by prime-editor (PEmax); the activity of individual synTFs can be measured as the abundance of the barcode on the DNA TAPE (FIG. 2C). We first tested 3 different spacings-1 bp, 3 bp, and 5 bp-between the palindromic binding motifs to maximize the recorder activity. 3 synTF specific recorders and 1 TCF-LEF-recorder (negative control) were mixed with ratio 2:2:2:1 and co-transfected with synTFs into the HEK293T cells expressing PEmax. Cells were harvested and analyzed 2 days post-transfection. After analyzing the barcode abundance on the DNA TAPE, we observed 3-5 fold activation for DBP9/DBP35 and DBP57/DBP60 (FIG. 2D).
HEK293T cells expressing PEmax™ were cultured in DMEM High glucose (GIBCO), supplemented with 10% Fetal Bovine Serum (Rocky Mountain Biologicals) and 1% penicillin-streptomycin (GIBCO). Cells were grown with 5% CO2 at 37° C. 1×10^5 cells were seeded on a 48-well plate a day before transfection. Enhancer plasmid and binder plasmid were mixed with a ratio of 2:1. Enhancer variants and background control were mixed with a ratio of 2:2:2:1. A total of 300 ng of plasmid were transfected using Lipofectamine™ 3000 (ThermoFisher, L3000015), following the manufacturer's protocol. Cells were harvested 2 days post-transfection. Genomic DNA was extracted based on the protocol described earlier (43). Briefly, cells were lysed using freshly prepared lysis buffer (10 mM Tris-HCl, pH 7.5; 0.05% SDS; 25 µg/ml protease (ThermoFisher)) for each well. The genomic DNA mixture was incubated at 50° C. for 1 h, followed by an 80° C. enzyme inactivation step for 30 min. The DNA TAPE was amplified from the genomic DNA directly for next generation sequencing. Recorded information was extracted via custom analysis code. Each enhancer has a unique barcode representing its activity. Transcription activation was measured as the fold change in the barcode abundance relative to the negative control barcode. All measurements were performed in triplicates.

The test system of data set [5] is biotinylated dsDNA oligo (designed DNA target). Kind of data set: Clonal yeast surface display binding to biotinylated dsDNA oligo. The source says:
For each set of designs, synthetic oligonucleotides (230 base pairs) encoding the 50-65-residue designed proteins were ordered in a single pool and cloned into a yeast surface-expression vector. Cells containing designs that bound each DNA target were enriched by several rounds of fluorescence-activated cell sorting (FACS) using fluorescently labeled target dsDNA oligos. The naive and sorted populations for each DNA target were deep sequenced, and the frequency of each design in the starting population and after each sort was determined. From this analysis, we identified 97 designs that were substantially enriched (>100×) in pools sorted with their intended dsDNA target compared to the naive library. […]
For yeast display characterization of individual designs, including competition assays, DNA sequences encoding the proteins of interest were purchased as Integrated DNA Technologies (IDT) E-Blocks™, transformed into yeast cells, and incubated in 96 well culture plates. […] For each individual sample, gating of the expression population was performed using the CytoFlow™ Gaussian Mixture Model and the ratio of SAPE channel intensity to FITC channel intensity (binding signal/expression signal) was calculated for all gated expression events of the sample.

Data set [6] relates to biotinylated target dsDNA with non-biotinylated competitor dsDNA. As to the kind of experiment: Yeast display competition assay with base-substituted competitor dsDNA. The format is binding.
Text: We used a yeast display competition assay to characterize the DNA binding site specificity of a subset of the designs (FIG. 1A-E, left; FIG. 5). Addition of non-biotinylated competitor dsDNA to biotinylated target sequence reduced binding signal by flow cytometry (FIG. 1A-E, middle). […] For example, in DBP6 (FIG. 1A) R31 and R36 in the design model form bidentate hydrogen bonds with the guanines of base pair positions G12 and C9, respectively, while T32 forms a hydrogen bond with C10.
as §1

For “TCTGGATAGTGTATCCAGATTGACATCTGGAAGTATATCCAGATAATGAGCACTTCC (double strand) [PDBP57 synthetic promoter]”, the activity (fold repression) in data set [1] was 8.1.
Regarding “GGCGTCAGGTGGACGCAGATTGACAGCGTCAGGTGGACGCTTATAATGAGCACTTCC (double strand) [PDBP48 synthetic promoter]”, in data set [2], the activity (fold repression) stood at 3.4.

B1: DBP57: designed DNA-binding protein, SEQ ID NO: 31, DNA target E (protein)
chain: MVLTPMERIGEFIKRARREAGLTQRELAELAGVGQSTVSRIEKGEKCSPELVEKILEALRKV
With B1, the “Number of the 13 tested DNA target sequences preferentially bound” value in the data set on 13 unique dsDNA targets (1 μM dsDNA with avidity, including designed target sequence) is listed as “less than 3”. Moreover, in the data set with 13 unique dsDNA targets (all-by-all screen with Rosetta-predicted motifs), the “Binding specificity versus design models” value is “bound with specificity closely consistent with the design models”. Besides, the “Binding to initial design target” value in the data set with 13 unique dsDNA targets (yeast surface display, 1 μM dsDNA with avidity) is given as “bound strongly”. In the data set on 13 unique dsDNA targets (yeast surface display, 1 μM dsDNA with avidity, alternate target H (DBP90), D (DBP48), C (DBP57)), the “Binding to alternate target sequence” value was “bound strongly”. The “Fold repression of YFP by single DBP domains and tandem linked DBP domains” value in data set [3] was “not observed”. The “Fold activation of synTFs measured as normalized barcode abundance in the DNA TAPE” value in data set [4] was 3-5 fold.

B2: DBP35opt: optimized DBP35 combining R33N, K18V and P42Q; sequence matches Table 1 row SEQ ID NO: 50, DNA target B (protein)
chain: GFGRAVKEKRKELGLTQVEFAEKAGLSRRTIINIERGYIVPQKATKEKIAKALGTSVEELEQA
On to B2, for which, in data set [5], the “Detectable binding down to (dsDNA concentration)” value is around 150 pM. Moreover, in the data set with 13 unique dsDNA targets (yeast display screen against the 13 DNA targets, versus original DBP35), the Off-target binding result is “strongly decreased off-target binding”. The “Number of base positions of specificity” value in data set [6] is given as 7 base positions. In addition, in data set [4], the “Fold activation of synTFs measured as normalized barcode abundance in the DNA TAPE” value is listed as 3-5 fold.
